Experimental data published in the PETadex activity labels.

B1: unnamed (protein)
chain: MRPCSRSTNTTPPLRTRSRPMTALIALATTIGLALTLLTATAAPAAAADLLSQGKPVTSSSTENTSTPASAAVDGNTGTRWSSTFSDPQWLTVDLGATATISQVVLRWEAAYARSFRIQTSDNGTSWTTIHSTTTSTGGAQTLDVNGSGRYIRLYGTQRGTAYGYSLWEFQVYGSGEGTPPGSGIPDPTTVSLEATNGPLTTATYTVPSPSGYGSGTVTYPTASGSYPGIVLMPGYQGTQQNLQWLAPRLASWGFVVINVGTNTLTDDPESRGRQITAAGTQLLALGDAPGNPLSGKLNGTLGATGHSMGGGGVMAALRDDSRFRAGVPTAPYHPNGNFSGVTEPTFFLTCQSDAVAHGDRYAVPWYTSMSQAEKLYIEVPGDHLCPMTGYGNKAKQGKWMVSFFSLWLRADTRFSPFLCGPARDADKNDTSLVTRWMDTCQF
B2: unnamed (protein)
chain: MASRQSKTRLTRRAKLTALAAATLLSFAAQAQTVIFSENFGSGLGQFTTSGTVSTSSGAAVIQGCYNCTDGAIVSKSISTVGYTGLKLSYDRSTTGLDSGEYGVSAYLVSGGAWTAIENITSSSGRVTLTLPAAVENQASVQLRFRVSSSLSTETLTVDNVVLEGTSASGGGGGGAGYEKGPNPTNAALEASAGPFTVATKAVSASSASGYGGGTIYYPTNVTGTLGAVVVIPGYTAYQSSVSWWGSRLASHGFVVMTIDTNSIYDLPPARATQLMAAVNQLKVFNATAGHVIQGKIDTTRMGIMGWSYGGGGTLIAARDNPSLKAAIPFAPKTTTGTDFSGITMPTLIIGCESDSTAPVSSWSIPFYNSIPAAVKKAYLEVNNGDHFCPTTSGPSSVKPILGKYGVSWMKRWLDNDTRYSTFLCGSPHTTDLGNTAVISEYRDNCPY
B3: unnamed (protein)
chain: MNSNRTVPLRRAAIAVVLALTLVACDWKGPAPTDASLTAASGPFAVSTLAVPSSAGFGGGTIYYPSNVDGPFAAISVSPGFFSTQSAIAAWGPRLASHGFVVITINTTSLLADPTQRSTEQRQALAHVVNQGNTASSPIFGLVDGNRTGVAGHSMGGGASLISAQADPSIDAAMPFAPWNLGTNFAGITSPTLVLACQADGVAAPNSMASPMYNSIPATTKKMYLSVTNGDHSCANAPTGGNNDVGRYGVAFFKRWLDSDTRYDPWMCGASAPTAGGALNEVRSTCPF
B4: unnamed (protein)
chain: MLLVSANALSYTPAPVANPAPIAAPAPCQDCDFNRGPNPTNSSVERLGPYSVATQRVSSSVSGFGGGTIHYPTNIAGKVGAIAVVPGFVSPESSIRWWGPQLASHGFVVITIATNSIFDQPSSRERQLGRALDYVINQTNSSGTAISGLVDTNRLGAMGWSMGGGGSLRLANGGRLSAVIPLAPWNEGASGFSQLTTPTLVVACENDLIAPVRVHASPFYNVIPNTTDKAFLEVNNGSHSCANGGGVNGGLLSKYGVSWMKRFIDEDTRYQQFLCGPNHSANPAISEYRDTCNY
B5: unnamed (protein)
chain: MKGIRTRVLPVGKKNTGVKMRCAWRRRVSAFTQSAILHNTHSQETPVMSDPRLSVARLAWAGILLMGAASATCQAQTNPFERGPDPTSSLLNASAGPLATASVAVASPTGFGGGTIYYPTAANTYGVIALCPGFTGTQSSVAWLGSRLASHGFVVVTMNTNSSLDFPASRATQLMAALNHVINNSNATVKSRIDPNRRAVGGHSMGGGGSLIAAQNNPSLKGAYPLTPWNTSTNFSGVGVPTMIIGADGDTTAPVGSHARPFYASLPAATLKAYGELNGATHSTPTSTNTPTGRYAVSWMKRFVDTDTRYSPFLCGAEHTSYATATVFDRYQQNCPY
B6: unnamed (protein)
chain: MKTTQFLRTAVCTFTLSFSLTAFSGGGGGSSDNDGNLPTPNSCTSNCGFEIGPNPNLNFVRASQGPLPVSTTTVASSVDGFGGGTIYYPSNISDEVAAIAISPGFTARQSSIAWWGPILASHGFVVITIDTNSRFDQPDSRGRQLDSSLSYLINESNRSNSPISGRVDDSRLAAMGHSMGGGGSLRSAARNRLSAAMPLAPFRVGGNDFDQIRVPTMIMACENDVVAPVGVHARPFYNRIPGSTDKVLLEINNGSHSCANGESSGNRPLLSTYGVSWMKRFLDKDRRYNQFLCGPNHEANSQISDFRDTCNF
B7: unnamed (protein)
chain: MRARTRLTALAAGLTLALGAPAATAATADQAQPAASASVEHGPAPTKESIGVDGPYKVASKKAPIDLKRSFYGGTIYYPADAGKGETYGTVVTMPGFLEPGAVMDLVAKRLASHGFVVMRAEALTPFSIPLVRAQAVLSAQKVLHADADLAPIMDTERTALVGHSMGGGGVLHAAAMSEQDAVIPIHPWAQTIFPLVKEPTLTIGGLLDNVAPMVEYTLPIYASIGSETKGLFTDLAGTHWAGLVDNKVIQGRILSFVKLHVDGDTRYEQFVCAPAEKGFTYKSPC

substrate: BHET; conditions: 120 h

| Protein | plate clearing |
| --- | --- |
| B1 | not clears the plate |
| B2 | not clears the plate |
| B3 | not clears the plate |
| B4 | not clears the plate |
| B5 | not clears the plate |
| B6 | not clears the plate |
| B7 | not clears the plate |
